Measurements as given in patent publication US20190309059A1 (SHANGHAI PHARMAEXPLORER, published 2019).

Tests used:
[1] = molecular target: T1, mouse IL-13 (purchased from sino biological) (mouse, UniProt P20109 19-131); assay: ELISA, mouse IL-13; antibody at 0.021 nM
T1 chain: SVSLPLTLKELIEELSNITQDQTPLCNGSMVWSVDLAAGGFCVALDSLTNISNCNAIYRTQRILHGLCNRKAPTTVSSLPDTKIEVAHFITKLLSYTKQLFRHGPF

[2] = molecular target: his-labeled human IL-13 (immunogen A) (human) (UniProt P35225); assay: ELISA, biotin-immunogen A; antibody at 0.53 nM
[3] = molecular target: his-labeled human IL-13 (immunogen A) (human) (UniProt P35225); assay: FACS blocking assay: antibody titrated with biotin-labeled immunogen A (20 ng/mL); blocked partner IL-13Ra2 on HEK293 clone 1A1; Alexa 488 streptavidin
[4] = molecular target: T1, mouse IL-13 (purchased from sino …); assay: ELISA, mouse IL-13; antibody at 13.33 nM
[5] = molecular target: his-labeled human IL-13 (immunogen A) (human) (UniProt P35225); assay: FACS blocking, biotin-IL-13 on IL-13Ra2 HEK293 cells; antibody at 0.01 nM
[6] = molecular target: his-labeled human IL-13 (immunogen A) (human) (UniProt P35225); assay: FACS blocking assay: antibody titrated with biotin-labeled immunogen A (30 ng/mL); blocked partner IL-13Ra1/IL-4Ra on HEK293 clone 4C1; Alexa 488 streptavidin
[7] = molecular target: cynomolgus IL-13 (purchased from sino biological) (cynomolgus) (UniProt Q0PW92); assay: ELISA, cynomolgus IL-13; antibody at 66.67 nM
[8] = molecular target: his-labeled human IL-13 (immunogen A) (human) (UniProt P35225); assay: FACS blocking, biotin-IL-13 on IL-13Ra2 HEK293 cells; antibody at 0.002 nM
[9] = molecular target: cynomolgus IL-13 (purchased from sino biological) (cynomolgus) (UniProt Q0PW92); assay: ELISA, cynomolgus IL-13; antibody at 2.67 nM
[10] = molecular target: his-labeled human IL-13 (immunogen A) (human) (UniProt P35225); assay: ELISA, biotin-immunogen A; antibody at 0.11 nM
[11] = molecular target: his-labeled human IL-13 (immunogen A) (human) (UniProt P35225); assay: ELISA, biotin-immunogen A; antibody at 0.021 nM
[12] = molecular target: cynomolgus IL-13 (purchased from sino biological) (cynomolgus) (UniProt Q0PW92); assay: ELISA, cynomolgus IL-13; antibody at 0.004 nM
[13] = molecular target: his-labeled human IL-13 (immunogen A) (human) (UniProt P35225); assay: ELISA, biotin-immunogen A; antibody at 2.67 nM
[14] = molecular target: T1, mouse IL-13 (purchased from sino …); assay: ELISA, mouse IL-13; antibody at 0.004 nM
[15] = molecular target: his-labeled human IL-13 (immunogen A) (human) (UniProt P35225); assay: FACS blocking, biotin-IL-13 on IL-13Ra2 HEK293 cells; antibody at 0.05 nM
[16] = molecular target: his-labeled human IL-13 (immunogen A) (human) (UniProt P35225); assay: ELISA: biotin-labeled immunogen A on streptavidin plate, antibody titrated, HRP secondary antibody, OD450
[17] = molecular target: his-labeled human IL-13 (immunogen A) (human) (UniProt P35225); assay: ELISA, biotin-immunogen A; antibody at 0.004 nM
[18] = molecular target: his-labeled human IL-13 (immunogen A) (human) (UniProt P35225); assay: ELISA, biotin-immunogen A; antibody at 0.001 nM
[19] = molecular target: his-labeled human IL-13 (immunogen A) (human) (UniProt P35225); assay: cell-based or functional assay
[20] = molecular target: T1, mouse IL-13 (purchased from sino …); assay: ELISA, mouse IL-13; antibody at 0.11 nM
[21] = molecular target: T1, mouse IL-13 (purchased from sino …); assay: ELISA, mouse IL-13; antibody at 0.001 nM
[22] = molecular target: his-labeled human IL-13 (immunogen A) (human) (UniProt P35225); assay: FACS blocking, biotin-IL-13 on IL-13Ra2 HEK293 cells; antibody at 1.33 nM
[23] = molecular target: cynomolgus IL-13 (purchased from sino biological) (cynomolgus) (UniProt Q0PW92); assay: ELISA, cynomolgus IL-13; antibody at 0.11 nM
[24] = molecular target: his-labeled human IL-13 (immunogen A) (human) (UniProt P35225); assay: FACS blocking, biotin-IL-13 on IL-13Ra2 HEK293 cells; antibody at 0.27 nM
[25] = molecular target: T1, mouse IL-13 (purchased from sino …); assay: ELISA, mouse IL-13; antibody at 0.53 nM
[26] = molecular target: T1, mouse IL-13 (purchased from sino …); assay: ELISA, mouse IL-13; antibody at 2.67 nM
[27] = molecular target: his-labeled human IL-13 (immunogen A) (human) (UniProt P35225); assay: ELISA, biotin-immunogen A; antibody at 13.33 nM
[28] = molecular target: T1, mouse IL-13 (purchased from sino …); assay: ELISA, mouse IL-13; antibody at 0.000 nM
[29] = molecular target: cynomolgus IL-13 (purchased from sino biological) (cynomolgus) (UniProt Q0PW92); assay: ELISA, cynomolgus IL-13; antibody at 0.53 nM
[30] = molecular target: his-labeled human IL-13 (immunogen A) (human) (UniProt P35225); assay: FACS blocking, biotin-IL-13 on IL-13Ra2 HEK293 cells; antibody at 166.67 nM
[31] = molecular target: his-labeled human IL-13 (immunogen A) (human) (UniProt P35225); assay: FACS blocking, biotin-IL-13 on IL-13Ra2 HEK293 cells; antibody at 33.33 nM
[32] = molecular target: cynomolgus IL-13 (purchased from sino biological) (cynomolgus) (UniProt Q0PW92); assay: ELISA, cynomolgus IL-13; antibody at 13.33 nM
[33] = molecular target: his-labeled human IL-13 (immunogen A) (human) (UniProt P35225); assay: ELISA, biotin-immunogen A; antibody at 0.000 nM
[34] = molecular target: cynomolgus IL-13 (purchased from sino biological) (cynomolgus) (UniProt Q0PW92); assay: ELISA, cynomolgus IL-13; antibody at 0.021 nM
[35] = molecular target: his-labeled human IL-13 (immunogen A) (human) (UniProt P35225); assay: FACS blocking, biotin-IL-13 on IL-13Ra2 HEK293 cells; antibody at 6.67 nM

Sequence of cynomolgus IL-13 (purchased from sino biological) (cynomolgus) (Q0PW92 entry or part of it): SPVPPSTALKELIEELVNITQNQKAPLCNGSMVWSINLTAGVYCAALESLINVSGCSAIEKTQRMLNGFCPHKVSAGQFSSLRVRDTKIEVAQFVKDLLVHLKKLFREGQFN

B1: 35E2C3 (lead antibody, mouse hybridoma) (antibody, V domains shown)
VH: EVQLQESGPGLAKPSQTLSLTCSVTGYSITSDYWNWIRKFPGNKLEYMGYISYNGNTYYNPSLKSQISITRDTSKNQLYLQLKSATTEDTATYYCARLAKWTWYFDIWGTGTTVTVSS
VL: DIQMNQSPSSLSASLGDTITITCHASQNINVWLSWYQQKPGSLPKLLIYKASDLHTGVPSRFSGSGSGTGFTLTISSLQPEDIATYYCQQGQSYPYTFGGGTKLEIK
notes: Mouse monoclonal antibody purified from hybridoma supernatant on Protein G
OD450 nm [1]: 0.06
OD450 nm [2]: 0.91
IC50 (read off the curve) [3]: 0.3 nM
OD450 nm [4]: 0.09
mean fluorescence intensity [5]: 74.3
IC50 (read off the curve) [6]: 0.4 nM
OD450 nm [7]: 1.56
mean fluorescence intensity [8]: 76
OD450 nm [9]: 0.52
OD450 nm [10]: 0.41
OD450 nm [11]: 0.15
OD450 nm [12]: 0.07
OD450 nm [13]: 1.31
OD450 nm [14]: 0.06
mean fluorescence intensity [15]: 66.6
EC50 (read off the curve) [16]: 0.3 nM
OD450 nm [17]: 0.07
OD450 nm [18]: 0.05
TARC (pg/mL), A549 cells + IL-13 5 ng/mL + TNFα; antibody at 0.001 nM [19]: 1730 pg/mL
TARC (pg/mL), A549 cells + IL-13 5 ng/mL + TNFα; antibody at 0.004 nM [19]: 1670 pg/mL
TARC (pg/mL), A549 cells + IL-13 5 ng/mL + TNFα; antibody at 0.021 nM [19]: 1620 pg/mL
TARC (pg/mL), A549 cells + IL-13 5 ng/mL + TNFα; antibody at 0.11 nM [19]: 1550 pg/mL
TARC (pg/mL), A549 cells + IL-13 5 ng/mL + TNFα; antibody at 0.5 nM [19]: 1340 pg/mL
TARC (pg/mL), A549 cells + IL-13 5 ng/mL + TNFα; antibody at 2.7 nM [19]: 797 pg/mL
TARC (pg/mL), A549 cells + IL-13 5 ng/mL + TNFα; antibody at 13.3 nM [19]: 278 pg/mL
TARC (pg/mL), A549 cells + IL-13 5 ng/mL + TNFα; antibody at 66.7 nM [19]: 67 pg/mL
OD450 nm [20]: 0.06
OD450 nm [21]: 0.07
mean fluorescence intensity [22]: 38.7
OD450 nm [23]: 0.11
mean fluorescence intensity [24]: 53.2
OD450 nm [25]: 0.06
OD450 nm [26]: 0.08
OD450 nm [27]: 1.39
OD450 nm [28]: 0.07
OD450 nm [29]: 0.21
mean fluorescence intensity [30]: 28.9
mean fluorescence intensity [31]: 32.4
OD450 nm [32]: 1.13
OD450 nm [33]: 0.05
OD450 nm [34]: 0.07
mean fluorescence intensity [35]: 35.1
